# Experimental data from patent US12016906B2, “Pharmaceutical composition for anaemia” (Frimline Private Limited, priority 2018, dated 2024).
# B1: Lactoferrin: multifunctional globular glycoprotein of the transferrin family, about 80 kDa; individual component group (protein, UniProt P02788 20-710, looked up)
# Lactotransferrin: GRRRSVQWCAVSQPEATKCFQWQRNMRKVRGPPVSCIKRDSPIQCIQAIAENRADAVTLDGGFIYEAGLAPYKLRPVAAEVYGTERQPRTHYYAVAVVKKGGSFQLNELQGLKSCHTGLRRTAGWNVPIGTLRPFLNWTGPPEPIEAAVARFFSASCVPGADKGQFPNLCRLCAGTGENKCAFSSQEPYFSYSGAFKCLRDGAGDVAFIRESTVFEDLSDEAERDEYELLCPDNTRKPVDKFKDCHLARVPSHAVVARSVNGKEDAIWNLLRQAQEKFGKDKSPKFQLFGSPSGQKDLLFKDSAIGFSRVPPRIDSGLYLGSGYFTAIQNLRKSEEEVAARRARVVWCAVGEQELRKCNQWSGLSEGSVTCSSASTTEDCIALVLKGEADAMSLDGGYVYTAGKCGLVPVLAENYKSQQSSDPDPNCVDRPVEGYLAVAVVRRSDTSLTWNSVKGKKSCHTAVDRTAGWNIPMGLLFNQTGSCKFDEYFSQSCAPGSDPRSNLCALCIGDEQGENKCVPNSNERYYGYTGAFRCLAENAGDVAFVKDVTVLQNTDGNNNEAWAKDLKLADFALLCLDGKRKPVTEARSCHLAMAPNHAVVSRMDKVERLKQVLLHQQAKFGRNGSDCPDKFCLFQSETKNLLFNDNTECLARLHGKTTYEKYLGPQYVAGITNLKKCSTSPLLEACEFLRK
# Tests used:
# Assay type in all cases: in vivo, male Wistar rats (Rat Rattus)
# Conditions in all cases: IDD rats
# [1] = system: Iron deficient Diet (IDD) induced anaemia in rats; test: Hematocrit % level in IDD induced anaemia in rats
# Protocol: (§1) Screening of pharmaceutical composition/formulation comprising combination of Lactoferrin+Guanosine Nucleotide or a pharmaceutically acceptable salt thereof with or without optional ingredients against Iron deficient Diet (IDD) induced anaemia in rats. For this study different parameters like Hb Level, Hematocrit level, Serum Iron level, Ferroportin level, Serum Ferritin level, Hepcidin level and IL-6 Level were evaluated. The following trials were carried out by taking reference from Wang Xl, Liu S, Xu H, Yan W, Effects of recombinant human lactoferrin on improving the iron status of IDA. Wei Sheng Yan Jiu. 2012 January; 41(1):13-7, 22 and Nora M. El-Sheikh, the Protective Effect of Soybean and Thyme on Iron Deficiency Anemia in Rats, the Egyptian Journal of Hospital Medicine (2008) Vol., 33: 510-520 as available.
# (§2) 72 male Wistar rats (Rat Rattus) (6 per group) were maintained in animal house in a light/dark atmosphere based on a 12 hour cycle having temperature and relative humidity in the range of 22±3° C. and 30-70% respectively. To maintain the appropriate conditions, temperature and relative humidity were recorded three times daily. All animals were acclimatized for a minimum period of five days. Animals were maintained in the test setup for minimum 30 minutes once during the acclimatization period to reduce the stress. Animals were weighed on the day of receipt and observed daily for abnormalities if any. […]
# (§3) After 3 weeks of respective dietary intervention, the level of Hemoglobin was determined in each animal. […]
# (§4) After 5 weeks (35 days) of respective dietary intervention, once again hemoglobin level, HCT % level and serum iron level were analyzed and then, respective drug treatment was started with continuous administration of Iron deficient diets in all groups as mentioned above in Table 1.
# (§5) After 9 weeks of respective drug treatment (total after 14 weeks from start of the study—98 days), various biochemical parameters were measured to evaluate the effect of respective individual and combination therapy on iron deficient anaemia model (G3 to G12). […]
# [2] = system: Iron deficient Diet (IDD) induced anaemia in rats; test: Serum ferritin level in IDD induced anaemia in rats
# Protocol: as §1, with “2012 January; 41(1):13-7, 22 and Nora M. El-Sheikh, the Protective Effect of Soybean and Thyme on Iron Deficiency Anemia in Rats, the Egyptian Journal of Hospital Medicine (2008) Vol., 33: 510-520 as available.” left out
# (§6) 72 male Wistar rats (Rat Rattus) (6 per group) were maintained in animal house in a light/dark atmosphere based on a 12 hour cycle having temperature and relative humidity in the range of 22±3° C. and 30-70% respectively. To maintain the appropriate conditions, temperature and relative humidity were recorded three times daily. […]
# (§7) After 5 weeks (35 days) of respective dietary intervention, once again hemoglobin level, HCT % level and serum iron level were analyzed and then, respective drug treatment was started with continuous administration of Iron deficient diets in all groups as mentioned above in Table 1. […]
# [3] = system: Iron deficient Diet (IDD) induced anaemia in rats; test: Hb level in IDD induced anaemia in rats
# Protocol: as §1, with “Jiu.” for “Jiu. 2012 January; 41(1):13-7, 22 and Nora M. El-Sheikh, the Protective Effect of Soybean and Thyme on Iron Deficiency Anemia in Rats, the Egyptian Journal of Hospital Medicine (2008) Vol., 33: 510-520 as available.”
# as §2, with “any. Detailed records of acclimatization were also maintained. Rats were housed 6 per cage in clean, sterilized Polypropylene cages.” for “any.”
# After 3 weeks of respective dietary intervention, the level of Hemoglobin was determined in each animal.
# as §4, §5
# [4] = system: Iron deficient Diet (IDD) induced anaemia in rats; test: Hepcidin level in IDD induced anaemia in rats
# Protocol: as §1, with “2012 January; 41(1):13-7, 22 and Nora M. El-Sheikh, the Protective Effect of Soybean and Thyme on Iron Deficiency Anemia in Rats, the Egyptian Journal of Hospital Medicine (2008) Vol., 33: 510-520 as available.” left out
# as §6, §7
# [5] = system: Iron deficient Diet (IDD) induced anaemia in rats; test: IL-6 level in IDD induced anaemia in rats
# Protocol: as §1, with “Jiu.” for “Jiu. 2012 January; 41(1):13-7, 22 and Nora M. El-Sheikh, the Protective Effect of Soybean and Thyme on Iron Deficiency Anemia in Rats, the Egyptian Journal of Hospital Medicine (2008) Vol., 33: 510-520 as available.”
# as §6, with “daily. All animals were acclimatized for a minimum period of five days.” for “daily.”
# as §7
# [6] = system: Iron deficient Diet (IDD) induced anaemia in rats; test: Ferroportin level in IDD induced anaemia in rats
# Protocol: as §1, with “2012 January; 41(1):13-7, 22 and Nora M. El-Sheikh, the Protective Effect of Soybean and Thyme on Iron Deficiency Anemia in Rats, the Egyptian Journal of Hospital Medicine (2008) Vol., 33: 510-520 as available.” left out
# as §6, §7
# [7] = system: Iron deficient Diet (IDD) induced anaemia in rats; test: Serum iron level in IDD induced anaemia in rats
# Protocol: as §1, §2, §3, §4, §5
# [8] = Day 98, after 9 weeks of treatment p.o.
molecule,measurement,setting,value
B1,Hematocrit Pre-treatment,"[1]; Day 35, before treatment",35.33%
same,Hematocrit Post-treatment,[1]; [8],40.17%
same,Hematocrit % Change compared to Disease control,[1]; Day 98,56.3%
same,Ferritin Post-treatment,[2]; [8],680 ng/mL
same,Ferritin % Change compared to Disease control,[2]; Day 98,−8.1%
same,Hemoglobin Pre-treatment,"[3]; Day 35, before treatment",8.8 g/dL
same,Hemoglobin Post-treatment,[3]; [8],10.3 g/dL
same,Hemoglobin % Change compared to Disease control,[3]; Day 98,58.8%
same,Hepcidin Post-treatment,[4]; [8],3830 ng/mL
same,Hepcidin % Change compared to Disease control,[4]; Day 98,−13.0%
same,IL-6 Post-treatment,[5]; [8],57.2 pg/mL
same,IL-6 % Change compared to Disease control,[5]; Day 98,−8.2%
same,Ferroportin Post-treatment,[6]; [8],3.6 ng/mL
same,Ferroportin % Change compared to Disease control,[6]; Day 98,31.4%
same,Serum IRON Pre-treatment,"[7]; Day 35, before treatment",3.08 ppm
same,Serum IRON Post-treatment,[7]; [8],5.31 ppm
same,Serum IRON % Change compared to Disease control,[7]; Day 98,99.1%
